Positions count from the first letter of the chain named. Where two headings read alike, the source gives them in different places.
Columns and labels:
[1] = test system: OPM-2 xenografts; assay: OPM-2 xenografts in effector-cell-negative NSG mice; format: in vivo
Protocol: (§1) OPM-2 xenografts were prepared and conducted as previously described. NSG mice (NOD.Cg-Prkdcscid Il2rgtm1Wj1/SzJ) from The Jackson Laboratory (strain code 05557) were used. This strain lacks effector cells and eliminates the ADCC mechanism for all antibodies. AB095, an antibody that targets tetanus toxoid, was run as control. Dosing of test ADCs was normalized such that equal masses of the PBD component were delivered.
as §1, with “toxoid” for “toxoid,”, “SN38” for “PBD”
The combination of Hu34C3-MMAE E2 plus carfilzomib inhibited tumor growth (TGImax 43% (FIG. 26A) and TGImax 59% (FIG. 26B)) at similar levels to Hu34C3-MMAE E2 alone.
Efficacy of Hu34C3-MMAE E2 in combination with pomalidomide ((also known as 4-Amino-2-(2,6-dioxopiperidin-3-yl)isoindole-1,3-dione; marketed under the tradename POMALYST by Celgene Corporation, Summit, N.J. 07901) and/or dexamethasone ((also known as 8S,9R,10S,11S,13S,14S,16R,17R)-9-fluoro-11,17-dihydroxy-17-(2-hydroxyacetyl)-10,13,16-trimethyl-6,7,8,9,10,11,12,13,14,15,16,17-dodecahydro-3H-cyclopenta[a]phenanthren-3-one) was determined in subcutaneous xenografts of OPM-2 cells (van Rhee et al., 2009 Mol. Cancer Therapeutics 8: 2616-24). Effector-cell-negative mice were used (NSG strain) in this experiment. Vehicle (PBS/DMSO) was run as a control. ADCs were dosed at 3 or 6 mg/kg i.p.; pomalidomide was dosed at 20 mg/kg i.p. and dexamethasone was dosed at 10 mg/kg i.p.
Efficacy of Hu34C3-MMAE E2 was determined in subcutaneous xenografts of OPM-2 cells (van Rhee et al., 2009 Mol. Cancer Therapeutics 8: 2616-24). These xenografts were treated with bortezomib twice a week for two weeks. […] These tumors were re-randomized and either continued with bortezomib treatment or were switched to lenalidomide plus dexamethasone, pomalidomide, Hu34C3-MMAE E2, or Hu34C3-MMAE E2 plus pomalidomide treatments.

[2] = test system: L-363 human multiple myeloma cells; assay: In vitro proliferation assay (CellTiter-Blue), L-363 cells; format: cell-based; conditions: four days
Protocol: All antibodies were conjugated to each of monomethyl auristatin E (“MMAE”; auristatin microtubule inhibitor), monomethyl auristatin F (“MMAF”; auristatin microtubule inhibitor) and duocarmycin (DNA damaging drug) using previously described methods (Doronina et al., 2003, Nat Biotechnology 21(7):778-784; Polson et al., 2007, Blood 1102:616-623). Drug loading for each ADC was similar. 10,000-20,000 cells (L-363 human multiple myeloma cells) expressing HuCS1 were plated into 96-well plates, and different amounts of ADCs added to the cells. Four days post addition of ADC, cell viability was measured using the CellTiter-Blue® Cell Viability Assay (Promega), and IC50 values were calculated.

[3] = target: T1, human CS1 (Homo sapiens, UniProt Q9NQ25); assay: Flow-cytometry competition assay with AF488-labeled PDL241 (murine antibodies, Example 2); format: binding; conditions: 293s cells transfected with human CS1; 60 μg/mL unlabeled test antibody, 6 μg/mL labeled PDL241; less than 20% inhibition = does not compete
T1 construct: expressed in transfected cells; host or cells: 293s cells
Protocol: 293s cells transfected with human CS1 (300,000 cells per data point) were incubated at various concentrations with an AF488-labeled PDL241 antibody. The concentration at which 80% of maximal binding occurred was identified (6 μg/mL) and used for the subsequent competition assays.
(§2) For the competition assays, transfected 293s cells (300,000 cells per data point) were incubated for 30 min (on ice) with a tenfold excess of unlabeled test antibody (60 μg/mL). After the incubation, 6 μg/mL of AF488-labeled PDL241 was added to the cells and incubated on ice for 30 minutes. After this incubation, the cells were washed with PBS+1% FBS, and binding of AF488-labeled PDL241 was determine by flow cytometry.

[4] = target: T2, HuCS1 (Homo sapiens, UniProt Q9NQ25); assay: Flow-cytometry competition assay with AF488-labeled Luc34.3.8 on L-363 cells; format: binding; conditions: 20 μg/mL test antibody, 2 μg/mL labeled Luc34.3.8
T2 construct: L-363 cells (human multiple myeloma cell line) expressing HuCS1; endogenous in cells; host or cells: L-363 human multiple myeloma cell line
Protocol: A similar experiment was conducted with AF488-labeled Luc34.3.8 at 2 μg/mL. L-363 cells (human multiple myeloma cell line) expressing HuCS1 (300,000 cells per data point) was incubated for 30 min (on ice) with a tenfold excess of unlabeled test antibody (20 μg/mL). After the incubation, 2 μg/mL of AF488-labeled Luc34.3.8 was added to the cells and incubated on ice for 30 minutes. After this incubation, the cells were washed with PBS+1% FBS, and binding of AF488-labeled […] determined by flow cytometry.

[5] = target: T1, human CS1; assay: Flow-cytometry competition assay with AF488-labeled PDL241 (humanized antibodies, Example 5); format: binding; conditions: 293s cells transfected with human CS1; 50 μg/mL test antibody, 5 μg/mL labeled PDL241
Protocol: as §2, with “293s cells” for “For the competition assays,”, “transfected with human CS1 were incubated at various concentrations with an AF488 labeled PDL241 antibody. […] Transfected” for “transfected”, “(50” for “(60”, “5” for “6”, “FBS” for “FBS,”

[6] = target: T1, human CS1; assay: Flow-cytometry competition assay with AF488-labeled Hu34C3; format: binding; conditions: 293s cells transfected with human CS1; 100 μg/mL test antibody, 10 μg/mL labeled Hu34C3
Protocol: For the competition assays, transfected 293s cells (300,000 cells per data point) were incubated for 30 min (on ice) with a tenfold excess of unlabeled test antibody (100 μg/mL).

[7] = target: T1, human CS1; assay: Flow-cytometry competition assay with AF488-labeled elotuzumab; format: binding; conditions: 293s cells transfected with human CS1; 100 μg/mL test antibody, 10 μg/mL labeled elotuzumab
Protocol: A similar experiment was conducted with AF488-labeled elotuzumab at 10 μg/mL. Transfected 293s cells (300,000 cells per data point) were incubated for 30 min (on ice) with a tenfold excess of unlabeled antibody (100 μg/mL). After the incubation, 10 μg/mL of AF488-labeled elotuzumab was added to the cells and incubated on ice for 30 minutes. After this incubation, the cells were washed with PBS+1% FBS and binding of AF488-labeled elotuzumab determined by flow cytometry.

[8] = Example 29, low-dose Hu34C3-MMAE E2 3 mg/kg i.p., pomalidomide 20 mg/kg i.p., dexamethasone 10 mg/kg i.p.
[9] = antibody conjugated to MMAF, read-out: IC50, MMAF ADC
[10] = antibody conjugated to duocarmycin, read-out: IC50, Duo ADC
[11] = antibody conjugated to MMAE, read-out: IC50, MMAE ADC

T1 sequence (Q9NQ25 23-335): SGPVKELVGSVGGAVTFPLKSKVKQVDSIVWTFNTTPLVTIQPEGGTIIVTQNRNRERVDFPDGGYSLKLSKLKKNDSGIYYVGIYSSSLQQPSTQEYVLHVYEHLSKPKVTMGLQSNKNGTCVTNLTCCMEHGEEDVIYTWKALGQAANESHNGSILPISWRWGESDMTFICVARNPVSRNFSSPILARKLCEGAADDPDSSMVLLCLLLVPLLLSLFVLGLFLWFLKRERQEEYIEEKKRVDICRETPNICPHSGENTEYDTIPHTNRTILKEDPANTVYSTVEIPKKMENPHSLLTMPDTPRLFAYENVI
T2 sequence (Q9NQ25 23-335): as above

Nc1cccc2c1C(=O)N(C1CCC(=O)NC1=O)C2=O (stereo not shown) [pomalidomide, 4-Amino-2-(2,6-dioxopiperidin-3-yl)isoindole-1,3-dione]
TGImax [1, 8]: 34%

C[C@@H]1C[C@H]2[C@@H]3CCC4=CC(=O)C=C[C@]4(C)[C@@]3(F)[C@@H](O)C[C@]2(C)[C@@]1(O)C(=O)CO [dexamethasone]
TGImax [1, 8]: 25%

CC(C)C[C@H](NC(=O)[C@H](Cc1ccccc1)NC(=O)c1cnccn1)B(O)O [bortezomib, [(1R)-3-methyl-1-[[(2S)-1-oxo-3-phenyl-2-[(pyrazinylcarbonyl)amino]propyl]amino]butyl]boronic acid]
TGImax ([1]; Example 27, Hu34C3-MMAE E2 3 mg/kg, bortezomib 1 mg/kg): 58%
TGImax at end of two week treatment ([1]; Example 31, bortezomib twice a week for two weeks): 66%

CC(C)C[C@H](NC(=O)[C@H](CCc1ccccc1)NC(=O)CN1CCOCC1)C(=O)N[C@@H](Cc1ccccc1)C(=O)N[C@@H](CC(C)C)C(=O)[C@@]1(C)CO1 [carfilzomib, (S)-4-Methyl-N-((S)-1-(((S)-4-methyl-1-((R)-2-methyloxiran-2-yl)-1-oxopentan-2-yl)amino)-1-oxo-3-phenylpropan-2-yl)-2-((S)-2-(2-morpholinoacetamido)-4-phenylbutanamido)pentanamide]
TGImax ([1]; Example 28, single agents, carfilzomib at 1.5 and 3 mg/kg): < 10%

B1: Mu12D10 (conjugate)
VH: EVKLVESEGGLVQPGSSMKLSCTASGFTFSDYFMAWVRQVPEKGLEWVASINYDGNSTYFLDSLKSRFIISRDNAKNILYLQMSSLKSEDTATYYCARDRGFYFDYWGQGTTLTVSS
VL: DVVMTQTPLSLPVSLGDQASISCRFSQSLVHRNGNTYLHWYLQKPGQSPKLLIYKVSNRFSGVPDRFSGSGSGTDFTLKISRVEAEDLGVYFCSQSTHVRPYTFGGGTKLEIR
modifications: conjugate
IC50 [2, 9]: 0.15 nM
IC50 [2, 10]: 0.2 nM
Competition with AF488-labeled PDL241 for binding [3]: do not compete with PDL241

B2: Mu34C3: murine anti-CS1 antibody, VH SEQ ID NO: 5, VL SEQ ID NO: 6; in Table 5 tested as MMAE, MMAF, duocarmycin ADCs (antibody, V domains shown)
VH: B1 VH with F33Y, N56S, F60Y, Y80F, S84N, F102Y
VL: B1 VL with F25S, R32S, R100P, Y102F, R113K
IC50 [2, 11]: 1.3 nM
IC50 [2, 9]: 0.08 nM
IC50 [2, 10]: 0.25 nM
Competition with AF488-labeled PDL241 for binding [3]: do not compete with PDL241

B3: Mu14C11 (conjugate)
VH: B1 VH with F33Y, N56S, F60Y, S85G, Y95S
VL: B1 VL with F25S, R100P, R113K
modifications: conjugate
IC50 [2, 9]: 0.25 nM
IC50 [2, 10]: 0.31 nM
Competition with AF488-labeled PDL241 for binding [3]: do not compete with PDL241

B4: Mu31D2 (conjugate)
VH: B1 VH with F33Y, S50D, N56G, F60Y, Y80C, F102Y
VL: B1 VL with F25S, R32S, R100P, Y102F, R113K
modifications: conjugate
IC50 [2, 11]: 3.5 nM
IC50 [2, 9]: 0.12 nM
IC50 [2, 10]: 0.2 nM
Competition with AF488-labeled PDL241 for binding [3]: do not compete with PDL241

B5: Mu27A12 (conjugate)
VH: B1 VH with F33Y, S50E, N56S, F60Y, S85N
VL: B1 VL with F25S, R32N, R100P, R113K
modifications: conjugate
IC50 [2, 11]: 3.5 nM
IC50 [2, 9]: 0.11 nM
IC50 [2, 10]: 0.19 nM
Competition with AF488-labeled PDL241 for binding [3]: do not compete with PDL241

B6: Hu27A12: humanized anti-CS1 antibody, VH SEQ ID NO: 24, VL SEQ ID NO: 26 (antibody, V domains shown)
VH: EVQLVESGGGLVQPGGSLRLSCAASGFTFSDYYMAWVRQAPGKGLEWVAEINYDGSSTYYVDSVKGRFTISRDNAKNSLYLQMNSLRAEDTAVYYCARDRGFYFDYWGQGTTVTVSS
VL: DVVMTQTPLSLSVTPGQPASISCRSSQSLVHNNGNTYLHWYLQKPGQSPQLLIYKVSNRFSGVPDRFSGSGSGTDFTLKISRVEAEDVGVYFCSQSTHVPPYTFGGGTKVEIK
Competition with AF488-labeled Luc34.3.8 for binding [4]: do not compete with, and bind different epitopes than, Luc34.3.8
Competition with AF488-labeled PDL241 for binding [5]: do not compete with, and bind different epitopes than, PDL241
Competition with AF488-labeled Hu34C3 for binding [6]: None of the anti-CS1 antibodies tested (including Hu27A12 and Hu31D2) compete with Hu34C3
Competition with AF488-labeled elotuzumab for binding [7]: do not compete with, and bind different epitopes than, elotuzumab

B7: Hu31D2: humanized anti-CS1 antibody, VH SEQ ID NO: 16, VL SEQ ID NO: 19 (antibody, V domains shown)
VH: B6 VH with E50D, S56G, V61L, V64L, G66S, F102Y, T112L
VL: B6 VL with T7S, S12P, Q17E, N32S, Y102F
Competition with AF488-labeled Luc34.3.8 for binding [4]: do not compete with, and bind different epitopes than, Luc34.3.8
Competition with AF488-labeled PDL241 for binding [5]: do not compete with, and bind different epitopes than, PDL241
Competition with AF488-labeled Hu34C3 for binding [6]: None of the anti-CS1 antibodies tested (including Hu27A12 and Hu31D2) compete with Hu34C3
Competition with AF488-labeled elotuzumab for binding [7]: do not compete with, and bind different epitopes than, elotuzumab

From patent US10011657B2, “Anti-CS1 antibodies and antibody drug conjugates” (AbbVie Biotherapeutics Inc., priority 2014, dated 2018)
